Measured values: patent US10029000B2, “Uses of IL-12 in hematopoiesis” (University of Southern California, priority 2003, dated 2018)
“And” between values parts separate entries of the source, which are not always exact repeats. Identical values can stand only once.

Key:
Format in all cases: in vivo, mice
[1] = tested on: bone marrow progenitor cells; assay: Colony forming cell assay (CFC assay) of bone marrow after lethal irradiation
Protocol: To determine the bone marrow cell subsets that are protected by IL-12 administration for the rescue phenomena, CFC and CFU-S12 assay were performed at different time post lethal dose radiation. Bone marrow cells were recovered from IL-12 treated or control animals immediately (day 0), or at day 7, 9, 10, 12, 14 and 21 post radiation for CFC and CFU-S12 assay. If progenitor cells are protected from IL-12 treatment (IL-12 was administered in this study at 24 hours before radiation), CFC and CFU-S12 colonies should be detected when cells were removed at day 0. However, bone marrow cells isolated at day 0, 7 post radiation give rise no CFC nor CFU-S12 colonies in both IL-12 treated and control animals. At day 10 post radiation, the bone marrow cells isolated from IL-12 treated mice start to give rise of CFU-S12 but no detectable CFC, which start to appear from IL-112 treated bone marrow isolated 12 days post radiation and fully recovered from bone marrow cells isolated 14 days post radiation, as shown in FIGS. 5A and 5B. […] The CFU-S12 colony forming cells and CFC cells at day 10 and day 14 post radiation may be derived from long-term repopulating stem cells rescued by IL-12 treatment.
FIG. 5A: Isolated bone marrow cells were plated in methycellulose plates for 12 days to detect colony formation. Bone marrow cells from normal mice were used as control for the assay system. […] In contract, there is no recovery of CFC cell activity from control mice bone marrow cells.
24 hours before lethal irradiation, mice were i.v. treated with IL-12 (100 ng/mouse) and bone marrow cells were isolated from these mice at different days after lethal irradiation. For CFU assay, 2×10^5 bone marrow cells were thoroughly mixed into 1 ml methylcellulose medium MethCult GF M3434 from StemCell Technologies Inc (Vancouver, BC) and cultured into 35 mm dishes. Each sample was duplicated. After 12 days culture, colonies (>50 cells) were counted under microscope.

bone marrow cells [2] = assay: Cell cycle analysis with propidium iodide staining; conditions: 24 hours post IL-12 administration; control 10%, p<0.05
Protocol: (§1) It is believed that cells at S phase are more resistant to radiation. Both Brd-U incoperation and cell cycling analysis were performed to determine if IL-12 can stimulate bone marrow cell proliferation. In IL-12 treated mice, there are more bone marrow cells in S phase compared with control animals (12% vs 10%, p<0.05). Furthermore, there are more BrdU positive cells in IL-12 treated bone marrow compared with control animals (17% vs 8%, p<0.05).
(§2) 24 hours post IL-12 administration (10 ng/mouse), bone marrow cells were isolated for BrdU incooperation assay (FIG. 7A).
For the cell cycling assay, IL-12 (100 ng/mouse) or PBS was intravenously injected into mice. 24 hours after injection, whole bone marrow cells were flushed from femurs and treated with lysis buffer to destroy red blood cells. After washing in PBS and fixing in −20° C. pure ethanol for at least 1 hour, about 5×10^5 bone marrow cells were treated with RNase A (20 ng/ul final concentration) at 37° C. for 30 minutes, then stained with propidium iodide (100 ng/ul final concentration) from Sigma (St Louis, Mo.) at room temperature for 15 to 30 minutes and then processed directly for cell cycling analysis using fluorescence activated cell sorting (FACS).

bone marrow cells [3] = assay: BrdU incorporation assay; conditions: 24 hours post IL-12 administration (10 ng/mouse); control 8%
Protocol: as §1, §2
For the BrdU assay, IL-12 (10 ng/mouse) or PBS was intravenously injected into mice. 21 hours after injection, mice were i.p. injected with 5-Bromo-2′-deoxyuridine (BrdU from Sigma) at 50 mg/kg dosage. 3 hours after BrdU injection, mice were sacrificed and whole bone marrow cells were isolated from femurs and treated with lysis buffer to destroy red blood cells. Bone marrow cells were dispersed on a slide by cytospin for the proliferation assay using BrdU immunohistochemistry system kit purchased from Oncogene Research Products (Boston, Mass.)

Sca-1+ cells = assay: Annexin V / Sca-1 detection after lethal dose radiation (apoptosis); conditions: IL-12 24 hours before 10 Gy, 7 hours post radiation
Protocol: IL-12 administration protects Annexin V^−/Sca-1^+ cells (H4) from radiation induced apoptosis, where the Sca-1^+ positive cells are indicative of the presence of hematopoietic repopulating cell or hematopoietic stem cells and Annexin V negative cells are indicative of the functional bone marrow cells.
A study was conducted to assess whether IL-12 administration protects Sca-1+ cells from radiation induced apoptosis. The Sca-1+ is a marker for hematopoietic repopulating cell or stem/progenitor cells. 24 hours post IL-12 administration, mice received lethal dose radiation (10 Gy). 7 hours post radiation, mice were sacrificed and bone marrow cells were isolated to detect Annexin V (an indication of cell apoptosis) and Sca-1 antigen (stem cell marker).

peripheral blood cells = assay: Blood cell recovery after chemotherapeutic drug Cytoxan; conditions: Cytoxan 300 mg/kg, IL-12 36 hrs before or 12 hrs after, n=5
Protocol: FIG. 9A: white blood cell; FIG. 9B: red blood cell; FIG. 9C: platelet; FIG. 9D: lymphocyte; FIG. 9E: monocyte; FIG. 9F: neutrophile. Cytoxan is name for cyclophosphamide.
A study was conducted to determine whether IL-12 administration promotes multi-lineage blood cell recovery when used in conjunction with a chemotherapeutic drug. In this example, use of IL-12 is as an adjuvant or ancillary therapy to the primary therapy of chemotherapy. IL-12 was administrated at different time (36 hrs before or 12 hrs after chemotherapy). Mice in this study received a relatively high dose of chemotherapeutic drug Cytoxan (e.g., 300 mg/kg). At different time post-cytoxan treatment, peripheral blood was collected via tail vein for blood cell count study. (Mascot). FIG. 9A white blood cell count; B: red blood cell count; C: platelet count.

B1: IL-12: Recombinant murine interleukin 12, heterodimeric cytokine (p35+p40), purchased from R&D Systems or PeproTech (protein, UniProt P43431 23-215; P43432 23-335, looked up)
Interleukin-12 subunit alpha: RVIPVSGPARCLSQSRNLLKTTDDMVKTAREKLKHYSCTAEDIDHEDITRDQTSTLKTCLPLELHKNESCLATRETSSTTRGSCLPPQKTSLMMTLCLGSIYEDLKMYQTEFQAINAALQNHNHQQIILDKGMLVAIDELMQSLNHNGETLRQKPPVGEADPYRVKMKLCILLHAFSTRVVTINRVMGYLSSA
Interleukin-12 subunit beta: MWELEKDVYVVEVDWTPDAPGETVNLTCDTPEEDDITWTSDQRHGVIGSGKTLTITVKEFLDAGQYTCHKGGETLSHSHLLLHKKENGIWSTEILKNFKNKTFLKCEAPNYSGRFTCSWLVQRNMDLKFNIKSSSSSPDSRAVTCGMASLSAEKVTLDQRDYEKYSVSCQEDVTCPTAEETLPIELALEARQQNKYENYSTSFFIRDIIKPDPPKNLQMKPLKNSQVEVSWEYPDSWSTPHSYFSLKFFVRIQRKKEKMKETEEGCNQKGAFLVEKTSTEVQCKGGNVCVQAQDRYYNSSCSKWACVPCRVRS
With B1 the CFC activity ([1]; day 12 post lethal radiation) was “low level CFC cell activity”, the CFC activity ([1]; first 9 days post lethal radiation, IL-12 24 hours before radiation) was “no detectable CFC activity” and the “time of full recovery of CFC activity” value ([1]; lethal radiation, IL-12 24 hours before radiation) was “about 14 days post radiation”. The “bone marrow cells in S phase” value (bone marrow cells [2]) was 12%, the “BrdU positive cells in bone marrow” value (bone marrow cells [3]) was 17% and the “AnnexinV-/Sca-1+ cells in whole bone marrow” value (Sca-1+ cells; control 9.7±1.5%, p<0.01) was 19.2±3.7% and 19.2±2.3%. The “proportion of AnnexinV-/Sca-1+ cells in total Sca-1+ cells” value (Sca-1+ cells; control 44±5%, p<0.05) was 54±5% and the “blood cell recovery versus control” value (peripheral blood cells) was “better blood cell recovery”.
